B1: library; numbered along this chain (parent)
chain: MRKPRAAVGSGHRKQAASQEGRQKHAKNNSQAKPSACDGLARQPEEVVLQASVSSYHLFRDVAEVTAFRGSLLSWYDQEKRDLPWRRRAEDEMDLDRRAYAVWVSEVMLQQTQVATVINYYTGWMQKWPTLQDLASASLEEVNQLWAGLGYYSRGRRLQEGARKVVEELGGHMPRTAETLQQLLPGVGRYTAGAIASIAFGQATGVVDGNVARVLCRVRAIGADPSSTLVSQQLWGLAQQLVDPARPGDFNQAAMELGATVCTPQRPLCSQCPVESLCRARQRVEQEQLLASGSLSGSPDVEECAPNTGQCHLCLPPSEPWDQTLGVVNFPRKASRKPPREESSATCVLEQPGALGAQILLVQRPNSGLLAGLWEFPSVTWEPSEQLQRKALLQELQRWAGPLPATHLRHLGEVVHTFSHIKLTYQVYGLALEGQTPVTTVPPGARWLTQEEFHTAAVSTAMKKVFRVYQGQQPGTCMGSKRSQVSSPCSRKKPRMGQQVLDNFFRSHISTDAHSLNSAAQ

Variants of: B1
Test: 8OG:A repair function score (normalized; synonymous = 0, nonsense = -1) (normalized log-likelihood score); higher = more repair activity (WT-like)
Settings: with 8OG:A DNA repair reporter (GFP) in HEK-293 MUTYH KO cells
Method in brief: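 Lentiviral MUTYH cDNA NNN codon-scan libraries in HEK-293 MUTYH knockout cells (10 pg/ml doxycycline) were co-transfected with an 8OG:A GFP repair reporter plus mCherry. At 72 h, viable mCherry+ cells were sorted into GFP+ (repair) and GFP− bins, three replicates per tile, then tile amplicons were sequenced. Per-tile Rosace fitness scores became a normalized repair function score anchored on synonymous and nonsense distributions. Synonymous medians were set to 0 and nonsense to -1; variants under 300 counts per million at the start were removed.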

Variant | 8OG:A repair function score
K493S | 0.0155
V274G | -0.676
Q111H | -0.591
R175C | -0.0695
R189C | -0.258
L58E | 0.0056
L290V | -0.0591
G401K | -0.582
H454K | -0.0092
P338E | -0.133
D243N | -0.739
L295N | -0.00265
P264K | -0.048
V438P | 0.0371
S510E | -0.0364
T204H | -0.234
F200Q | -0.502
R154V | -1.04
E140L | -0.0779
T130M | -0.278
K337C | -0.225
R2C | -0.529
L95M | 0.0014
N517T | -0.0674

Variant | 8OG:A repair function score
E106N | -1.72
A99N | -1.45
C489M | 0.00595
Q43S | -0.0281
P225S | -0.0602
P299W | -0.0506
E160Q | 0.018
A63I | -0.0351
E140Q | -0.159
G401S | -0.0552
M125Q | -0.33
E167S | -0.0659
T116A | -0.122
Q182A | 0.0281
G353V | -0.123
L241F | -0.872
C489H | 0.0276
G471T | -0.0359
A194Q | -0.577
C311P | -0.312
P129M | -0.298
T204Q | -0.045
F200M | 0.0616
L58P | -0.622

Variant | 8OG:A repair function score
M93A | 0.00637
W85L | -0.917
S276P | -0.0133
P437L | -0.197
S298C | -0.0366
E79A | 0.00477
T228G | 0.0678
V53R | 0.00694
L257A | -0.805
L295M | -0.0314
E342Q | 0.0267
T417P | -0.506
K463D | -0.287
L423T | -0.513
L241W | -0.384
A405I | 0.0761
G326C | -0.508
Q310W | -0.0199
A354K | -0.061
F200Y | 0.0681
G236N | 0.18
T179R | 0.0462
L158T | -0.756
R332E | -0.449

Variant | 8OG:A repair function score
S459K | -1.03
A245Q | 0.0913
T346I | 0.0144
Q78Y | -0.12
T228D | -0.245
P44R | -0.0646
L361P | -1.01
T176D | 0.00933
H416V | -0.101
V328L | 0.0391
A101W | -0.762
G222L | -0.623
S231Q | -0.132
V48D | 0.0961
F504W | -0.0289
P317T | -0.0225
V206G | -0.835
Y469K | -0.326
T449W | -0.634
R336E | -0.151
S507E | 0.000264
K164H | -0.186
T440E | 0.0718
N329W | -0.525

Variant | 8OG:A repair function score
H420D | -0.651
A456H | -0.479
N143Y | 0.0152
Q202F | -0.471
K164R | -0.0158
L268Y | -0.046
A223V | -0.38
S344F | -0.0252
T66S | -0.0428
P442T | -0.0315
P339R | -0.0864
L289P | -0.0119
E287A | -0.017
G497T | -0.00191
E285I | -0.0117
E45Y | 0.0286
S486L | 0.00981
L180E | -0.764
R189D | -0.22
N517L | -0.0164
A334V | 0.00558
E287W | -0.0668
Q473V | 0.00634
P377I | -0.348

Variant | 8OG:A repair function score
E141A | -0.0585
R156Q | -0.136
G297T | 0.0201
L411P | -0.665
V48A | 0.00435
E413L | -0.056
H312K | 0.0995
S487N | 0.0119
L295K | -0.0388
Q126K | 0.0876
A457F | -0.356
F376I | -0.775
R446K | -0.277
A89E | -0.00662
M496G | -0.00643
S298P | 0.0228
C347V | -0.045
N517R | 9.97e-05
I198P | -0.841
K390W | -0.444
M125V | -0.308
L73T | -0.136
R154L | -1.06
E451Y | 0.131

Variant | 8OG:A repair function score
A238E | -0.688
A391L | -0.101
A245P | -0.612
C269D | -0.992
R189Y | -0.336
P267S | -0.361
A162F | -1.26
V261P | -0.891
R446M | -0.121
G222K | -0.495
G161I | -0.841
A357R | -0.0515
S384F | 0.0338
F250K | -1.03
K492D | -0.0117
V328M | -0.0227
Q159F | 0.0628
L241C | -0.37
Q310H | -0.0309
R409Q | -0.332
L430H | -0.604
G479Y | 0.025
S296K | -0.0357
Q126D | 0.00176

Variant | 8OG:A repair function score
Q288V | -0.068
Q50S | 0.0939
A223I | -0.454
P247G | -0.799
V427W | -0.831
R409D | -0.0632
H514M | -0.00625
P404Y | -0.119
L109V | -0.838
C304G | -0.343
R2A | -0.0711
T476W | -0.159
T324W | -0.0525
L180R | -1.18
F504C | -0.00333
L49P | 0.109
T436C | -0.201
L183M | -0.13
L430Y | -0.0889
V117M | -0.226
K463F | -0.101
V414K | -0.609
A238W | -0.956
L295E | -0.0096

Variant | 8OG:A repair function score
V414T | -0.0984
R97N | 0.00607
S55K | 0.000876
V465T | -0.191
S105K | -1.25
L134Y | -0.464
T460G | -0.0856
V47P | -0.0988
A67P | -0.143
Y121V | -0.91
D61G | 0.00587
F250I | -0.896
L49W | -0.109
R189Q | -0.208
Y151E | -1.21
W146L | -0.263
D82Q | -0.0442
H420N | -0.608
L408F | -0.529
P488C | -0.0233
T308V | -0.00366
V47L | -0.135
L370G | -0.609
Q498M | -0.0277

Variant | 8OG:A repair function score
P273R | -0.526
R163V | -0.0917
Y100A | -1.95
V214D | -1.02
V62D | -0.0781
V218A | -0.268
S518N | 0.00686
D243C | -0.276
P174R | -0.877
R495C | -0.00275
W103R | -1.22
R189S | -0.0964
D96N | -0.00561
G309D | -0.000739
Q426F | -0.17
A177Y | -0.194
T176H | -0.0301
T176A | -0.251
F250C | -0.435
D61K | 0.00675
L408I | 0.246
R97S | -0.0417
V114F | -0.42
A391K | -0.22

Variant | 8OG:A repair function score
R60C | -0.081
T204R | -0.0298
H57S | -0.711
F59V | -0.24
G248V | -0.998
L134G | -0.824
E64Y | -0.98
A36D | -0.0511
N307W | -0.0672
G150K | -1.27
T122G | -0.143
S52M | -0.00303
D208G | -1
S55P | -0.274
T417N | 0.149
A220E | -0.465
C314A | -0.468
W85H | -2.53
P443V | 0.172
L393V | -0.37
R389E | -0.116
G258Y | -1.23
T380W | -0.271
R281T | -0.16

Variant | 8OG:A repair function score
P402E | -0.208
G434I | -0.0439
T436Q | 0.0306
T179A | -0.088
S74T | -0.0089
T116V | -0.0225
T380K | -0.0484
L109A | 0.00548
P225Q | -0.132
C278V | -1.16
S153I | -0.105
A519M | -0.00851
A115W | -0.182
W128E | -0.929
P320F | -0.0659
P443N | 0.222
Q388V | 0.063
A137R | -0.54
P443Y | -0.0335
P317W | -0.205
H410D | -0.324
K492P | 0.0192
V379W | -0.453
L158K | -1.19

Variant | 8OG:A repair function score
D133G | 0.0336
Y425P | -0.934
R213S | -1.01
A223Y | -0.608
A162N | -0.917
V242T | -0.488
L448V | -0.117
A137N | -0.267
S276Q | 0.0194
G401I | -0.184
L392Q | -0.839
D208P | -1.04
A199I | -0.536
K492E | 0.022
T179F | -0.0885
P247D | -1.03
G123A | 0.0469
S487M | 0.0121
S378D | -0.953
P437W | 0.078
C347D | -1.26
M255G | -1.02
A254H | -0.175
A203D | -0.191

Variant | 8OG:A repair function score
G161L | -1.01
Q394D | 0.0938
S138Q | -0.0419
T460N | -0.00346
D512R | -7.7e-05
R340S | -0.153
R409C | -0.178
V53N | -0.0892
G326E | -0.144
S367A | -0.145
T440D | -0.0869
H454T | 0.153
V468Q | -0.0492
I421C | -0.3
R467Q | -0.0758
T116S | -0.0572
S367I | -0.335
V500D | -0.00453
P273M | -1.05
Q472E | -0.00354
G222S | -0.439
M108F | -0.641
